The target in test [1] is T1, PPAR-RXR complex (Homo sapiens, UniProt P37231).
T1 sequence (P37231 1-505): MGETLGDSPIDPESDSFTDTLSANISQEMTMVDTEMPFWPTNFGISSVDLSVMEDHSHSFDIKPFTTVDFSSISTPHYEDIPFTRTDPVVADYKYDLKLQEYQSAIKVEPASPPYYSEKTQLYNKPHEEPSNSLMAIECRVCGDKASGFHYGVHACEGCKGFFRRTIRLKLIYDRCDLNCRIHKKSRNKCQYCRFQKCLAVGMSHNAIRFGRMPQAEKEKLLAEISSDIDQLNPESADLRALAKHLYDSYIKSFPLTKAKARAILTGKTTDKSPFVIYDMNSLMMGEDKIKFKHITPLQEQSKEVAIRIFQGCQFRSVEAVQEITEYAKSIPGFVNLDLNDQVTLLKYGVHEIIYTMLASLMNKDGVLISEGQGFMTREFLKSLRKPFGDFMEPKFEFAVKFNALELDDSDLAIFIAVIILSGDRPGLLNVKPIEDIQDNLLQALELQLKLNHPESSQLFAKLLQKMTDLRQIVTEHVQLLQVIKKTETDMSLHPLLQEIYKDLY
T1 sequence (P19793 1-462 partner): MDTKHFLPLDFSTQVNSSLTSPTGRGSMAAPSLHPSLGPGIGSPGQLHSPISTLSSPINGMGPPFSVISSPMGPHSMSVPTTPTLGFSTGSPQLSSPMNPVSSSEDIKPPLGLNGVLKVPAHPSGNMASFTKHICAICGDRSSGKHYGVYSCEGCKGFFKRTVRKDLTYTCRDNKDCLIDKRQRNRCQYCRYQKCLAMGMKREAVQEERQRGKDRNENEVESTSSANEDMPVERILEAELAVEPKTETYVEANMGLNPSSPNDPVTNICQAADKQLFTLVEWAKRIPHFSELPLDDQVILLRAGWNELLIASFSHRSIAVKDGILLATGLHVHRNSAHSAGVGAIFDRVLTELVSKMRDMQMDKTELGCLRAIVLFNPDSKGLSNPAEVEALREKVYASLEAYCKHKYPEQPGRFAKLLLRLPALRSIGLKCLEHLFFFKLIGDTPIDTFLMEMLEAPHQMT
Kind of test: Formation of the PPAR-RXR complex. Type of test: cell-based. To be noted: overexpression, FIG. 8C.

The target in test [2] is T2, PPARγ2 (Homo sapiens, UniProt P37231).
T2 construct: endogenous in cells; host or cells: HEK-293T
T2 sequence (P37231 1-505): T1 sequence (P37231 1-505)
Briefly: aP2 promoter luciferase reporter, transcriptional activity of PPARγ2 in HEK-293T cells. Type of test: cell-based. To be noted: for transcriptional activity of PPARγ2: overexpressed according to concentration, concentration-dependent manner, FIG. 1B/1C; for transcriptional activity of PPARγ2 (activity of the aP2 promoter): overexpression of 14-3-3 isoform proteins (0.5 μg), HEK-293T, 10 μM pioglitazone 24 hours, FIG. 1A. On the procedure:
The transcriptional activity of PPARγ2 plays a vital role in expression of liver diseases-associated proteins. Thus, the transcriptional activity of PPARγ2 was measured using an aP2 promoter regulated by PPARγ2, and the role of 7 types of 14-3-3 proteins was investigated.
For this, HEK-293T cells were seeded in a 12-well plate at a density of 1×10^5 cells per each well, and then transfected with an aP2 promoter construct (0.5 μg) and 14-3-3 isoform proteins (α, β, γ, δ, ε, ζ, η, θ) (0.5 μg) or si-14-3-3β and si-14-3-3γ siRNA (5 nM and 10 nM, Santa Cruz) using an E-fection plus reagent (Lugen). A ratio of DNA to the E-fection plus reagent was 1:2, and this method was performed according to a manufacturer's manual. After transfection, the corresponding cells were treated with 10 μM of pioglitazone (Pio, Santa Cruz) for 24 hours, washed with ice-cold PBS, and lysed using 80 μl/well of a reporter lysis buffer (Promega, Madison, Wis.), and the lysed cells were centrifuged at 10,000×g and 4° C. for 10 minutes to collect a supernatant, and luciferase activity was measured. As an instrument, Luminometer 20/20n (Turner Biosystems, Sunnyvale, Calif.) was used. For normalization, the cells were cotransfected with pSV40-β-galactosidase. For the collected supernatant, β-galactosidase activity was measured and the luciferase activity was revised, and the obtained values were plotted. At this time, a β-galactosidase enzyme analysis system (Promega, Madison, Wis.) was used, and analysis was performed using a DU530 spectrophotometer (Beckman Instruments, Palo Alto, Calif.).

The subject of test [3] is HepG2 cells. Kind of test: Triglyceride colorimetric assay in HepG2 cells. The following applies: HepG2, overexpression, 200 μM oleic acid 72 hours, FIG. 10A. Type of test: cell-based, human. The method, then:
HepG2 cells and primary mouse hepatocytes were separately seeded in a 6-well plate at a density of 4×10^5 cells per each well, and then transfected with GFP-14-3-3β DNA (1 μg) or GFP-14-3-3γ DNA (1 μg) and si-14-3-3β (10 μM, Santa Cruz) or si-14-3-3γ (10 μM, Santa Cruz) using an E-fection plus reagent (Lugen). A ratio of DNA to the E-fection plus reagent was 1:2, and this method was performed according to a manufacturer's manual. After transfection, the cells were treated with 200 μM of oleic acid (OA) for 72 hours, and the amount of triglycerides was measured using a triglyceride colorimetric assay kit (Cayman Chemical). The corresponding cells were washed with ice-cold PBS and then scraped using a standard diluent assay reagent, the scrapping process was repeated using a sonicator 20 times to lyse the cells, and the lysed cells were reacted with an enzyme buffer solution for 15 minutes, followed by measurement using an ELISA reader (Bio-Rad Laboratories, Inc) at a wavelength of 550 nm.

On to “14-3-3β: 14-3-3 isoform protein overexpressed by DNA transfection; increases the transcriptional activity of PPARγ2 by binding to PPARγ2”, for which, in test [1], the “formation of the PPAR-RXR complex” value is “did not affect”. Also, in test [2], the “transcriptional activity of PPARγ2” value was “increased” and the “transcriptional activity of PPARγ2 (activity of the aP2 promoter)” value is recorded as “increased”. Further, the triglyceride accumulation entry in test [3] was “further increased”.
As for “14-3-3γ: 14-3-3 isoform protein overexpressed by DNA transfection; decreases the transcriptional activity of PPARγ2; proposed active ingredient”, the “formation of the PPAR-RXR complex” value in test [1] was “did not affect”. In addition, in test [2], the “transcriptional activity of PPARγ2” value is reported as “reduced” and the “transcriptional activity of PPARγ2 (activity of the aP2 promoter)” value is “decreased”. Also, in test [3], the triglyceride accumulation result is recorded as “reduced”.

(Values after patent US10688197B2, “Non-alcoholic fatty liver regulator 14-3-3 protein” (Korea University Research and Business Foundation, priority 2015, dated 2020).)
